Source: the DeepSol protein solubility set

assay: soluble on expression in E. coli; label from the status in PepcDB or PDB records

Row | Sequence | soluble on expression in E. coli
1 | MSNWKPNIPYNDLPPLPPKQDIESKTILKRCIAARASLARLKQAAELIPNQAMLINTLPVMEARASSEIENIVTTTDKLFQSLQMDTERQDPATKEALQYRTALFAGYESLTSRPLCTQTAIMVCNAIKHPYEMAIRKTGGTALKGGNSGNVVYTPPEGEETIRGKLANWERFIHESGDLDPLIIMAAAHYQFEAIHPFTDGNGRTGRILNSLLLIEKGLLDLPILYLSRYIIENRADYYRLLLGVTERQDWESWIIYILDGVADTADWTVSKIDAIRRLFEQTRQHIRTHAQGIYTHELVNLLFEQPYTRIANLEAAGIAKRQTASKYLKELSDIGVLQEIVIGRDKLFIHPRLMELLRGEGNSFTSFQSLVKA | not soluble
2 | MVKWQATLSTTEPYNYIGIQNVRQGNRNTEVLEAILVENALPLDLTGCEVFFESVIDNKYPIQRAAKIVNAKKGIIQYTFDEYSMQSLHRQEAYFSIHKGDNLIGSTQNFSYFVVNAASKTEGEMGSYWQSIEDLIADMTAFINENKGDFTAWMNARKEEFEKWRKNQQDTFEAWRNGQETDYLKWFESIKDILKTIDPGGTMLAELMDARVDIQGVRHNSLSERLLADMNYLYHRLEERLYTIKYGNVNTLEILEDDSFSKNHEVEVLGTVNHPIEEGALIIATVDDSKQNVFTIEGVDNG | not soluble
3 | MKAYLHVASGKTFSGELAAPLEEKVSGEIVFFTGMTGYQEVLTDPSYKNQIIVFTYPLIGNYGINENDFESKRPHVEAVVVYEASREGFHYGAKYSLAEYLQHWNIPLLTHVDTRALVKEIRTAGTMMAELSLSPISAVGGEEAVFPVRAVSTKTIETYGEGGPHLVLVDFGYKKSILQSLLARGCRVTVVPHDTTPEAIDALKPDGLVLSNGPGDPKQLRHQLPAIRQLIDRYPTLAICLGHQLVALAYGADTEKLRFGHRGANQPVWDAVKQNVMMTSQNHSYVVKEGSLVGKPFDIRFINVNDGSVEGIVHRHKPILSVQYHPEAHPGPHDTGYIFDEFLQTVFKGENVYA | soluble
4 | MKLITAIVQDKDASSVANALVEHNIRATRLASAGGFLRSGNSTFLIAVKDDEVNTTIGVIKEHSKTRKQFVTPPVGLDMSIDTIGQPIEVEIGGATIIVQAIEDFQHF | not soluble
5 | MGSDKIHHHHHHMLNFSLTPNAKILSKDADSYPYMYRNYPFLRPWVDSLKQVNALKDTFIINPQGIQLHAFYITAPAPTSKTAVIVHGYTDNAIRMFMIGYLYNRDLGYNILLPDLQHQGESEGRAIQMGWKDRIDVLQWMNIANEIFGDSTQMVVHGISMGGATTMMVSGEKQQPYVKCFVEDCGYTSVWDEFSHELKSSFHLPAFPLMYTTSWLCEKKYGWNFKEASSLKQVEKCELPMLFIHGDKDTYVPTWMVYPLYEAKPEPKELWIVPGAAHALSYKENKQEYTDKVRDFVGRYIH | not soluble
6 | MSEPAVVSILDTDLYKLTMLQAVLEHYPDAQVSYKYTNRSPKMALNQEAYNWLREQIRGLRNLHLLPEEEQWLRKNCPYLKESFYEFMHEFEFDPENSISLNYDSETKDLSIFIHGLWKNTIFYEIPLLALVSESYFKFVDKDWSPEGQFEKAYEKGKRLIRAGCAFTDFGTRRRRDPHTQEIVLQGLMKAQEDFKGPGSFLGTSNVYFAAKYNLNVSGTVAHEWYMGIAAITQNYKQANRIASLKWVQTFGTSLLIALTDTFSTDVFLKSFTANSADDLANVFHGVRQDSGCAEEYIEKVVKHYKSIGVDPSTKVIVHSDALNVDRCIELYKYCEKCGIKSAFGIGTNLTSDFQKVSNPSEVSKPMNIVIKLFSAEGTKAVKISDDIMKNTGDRDAVIQAKHQLCLPIA | soluble
7 | DILVFTPRKSDAGISVILYPGAFVDALSYAPLANKLASSGYKTYIAEMPLNLAVFGKNRAADIIDEAPDEKFVIGGHSLGGVMSSRFAHENESEIEGVFFLASYPDKKGSLKNASFPALSITGTKDDVLNKDAYDKNKKYLPKDTTFVSIEGGNHAQFGSYGAQHGDGKATISEAEQTDQVSNALIAWLNTSVKNQER | soluble
8 | MTEFTLAHLSDPHLPLPPKTSLRHLASKRALGYLNWRRNRHLIHRRDILDTLVADLQAQQPDHIAVTGDLVNIALVNEFAPARQWLESVGPADRVSLVPGNHDAYVRSTAHRFAETFPDYISGDDATPGFPYLRRREAIAIIGVSSAVPTAPLRATGWLGAPQRAALEALLQSLAGERVFKVLLIHHPLQSRSRHKRLTDAADLIALLQRHPVDLVLHGHDHVHATVRIDTPFGAIPVVGVPSASAMNDRHRPSAAYNLFKISEGNDGWRCLEHHHHHH | not soluble
9 | MGSDKIHHHHHHMTQNTPLFSMESVSVRHNSVPALDAVSWTLHRGAHCAVLGGNGAGKSTLLRLAAGAIRPDQHDGGTVLWFPRGSAEDSPIAVRTHCGLVSAEQQEHYLRRSWRITGEEIVLSGYFGTDMLYRPAGTAQRHAAARLAKALDAEHLMPVMLEAMSQGQLRKILLARAMVHSPQLLLLDEVCEGLDAAARREMLAAIDRAAALGTTVLMSGHRAGQFPDCIRQAVLLRQGRLVFTGGLHQALHLMRTTHQPLPAGASDTAAGQCSCCTPPPACAGAAPVVEIEHADVYLGRTPVLHDITWSILPGQNWVVRGPNGAGKSTLLRLLYGDQRQAWGGIVRWFGMAGPVPLEEVRRNVALVSDRVQALYGHDGYHSTRLELNGEELVHTGFYDSTGLWGKTPDAQQHAAALRWMDRLGIAALAGTDIRRMSYGTLRRFMLARALVRDPQLLILDEPLSGLDESARRIMLTTLSALMRSGRQLVLVTHHQEDIQPETTHELHLNAGRITYCGPVCPAGDTL | not soluble
10 | MVDKNSLRKLMLLKRAELNDLEKSHLDQKINQKLMAFLITRPTIKNLALYIPIKNEVAFLDNFLDFLKLNKITSCFPSIVDQFNMKFIDQNNNEINPNDIDCFFIPLLAFNKANHRIGFGKGYYDRYLSLTSKKQLKIGIAYDFQYAEFTNDPWDYQLDLIICNGMAGDPLEHHHHHH | soluble
11 | MKIIGSMGKKTENLKIDAKKSFLKRIAKNVKVSEGERAVEDILRCIYRNQPISTKKIGQYVKLPLPIVSKVRSILERESLLKRDDKGAVLSKKGIDFVENELGLKLKSDMKCPVCSGRNIVFDEKFEKILKKHKTYAKLRPQVNTMIDQSFATPETATARAAIMADRGDLEGKRVLFVGDDDLASIPTAMTGLCSEVVVLDIDDRLLKLISEVSKKENLNIRTVKWDFKNELPSEFVNKFDTIFTDPPYTLNGAVLFMSRGIEALGDNGILYLAFSHKPVEEYIELQKSINNMNFLIYELIPGFNFYEGTEIIGNTTFLARLVGKNLKKIEVNSEKIYTGELKPTLRYYQCMNCKKIHEVGNKVKRIEDLTCECGGKKFSMIKRAKVKQK | not soluble
12 | MQASASNSSSYTVNASVLHVRAGSSTSHDIISRVYNGQSLNVIGEENGWYKININGKTGFVSGEFVSKNGTSNSNVSTTGGKNKVTADVLRVRTAPNTSSSVSGRVYEGQTLNVIGQENGWVKINHNGQVGYVSGEFVSGVSSNAGSSNSNTNNNNQESVKPASGNYTVNVSSLRVRTGPSTSHTTVGSVTKGQVVQVVGEVQDWFKINYAGQTAYVSKDYVTKGGSSDNVTQGNNQNNNQNNNVTVQTGGTYVVNATSLRVRTGPATYHSVIGGVLNGTTLNVIGSEGSWFKVNYQGKTGYVSSEFMKFVKGGTTTPEQPKQPEQPNQGAIGDYYINASALNVRSGEGTNYRIIGALPQGQKVQVISENSGWSKINYNGQTGYIGTRYLSKTPVGGAVDNNKPNNNQNNNQNNNNNTGNNSGNSSSILAYAKGMQGVPYVWGGTSANGVDCSGYIYHVFKKFGHNISRQSVAGYWGSLPQTSNPQPGDLIYFQNTYKSGPSHMGIYLGGGSFIQAGDKGVAIASLSNSYWKSHFLGYTKAPLEHHHHHH | soluble
13 | MAHHHHHHMSSCQNTHAARLHSATSAYAGEPESWMWTPARENGDGWRSPGTGTATSATAEAALHFVWGRVLSVYAVMPLNQTWNVQGVVDAVLPPLPANGGTTAAPSPPAAPAMAPGFQLLVMAAALLSPPATATTAVAAAPSMASLHKLSLMSPADAEPVDVGELSGAFWLAALRRAWPLFQACGVSHEPMTQGSNTNITEEAASSLGGVAVGMAGSGVNLEDLRTIVLSLFLRFADDSAVASAMAAADGDGAKLCGSAIRWAEAMCSDAPATYAQ | not soluble
14 | KTHEGHCYIIKAHTPIEEFNEQLNADFSDETYDTIGGIVLNKFGYLPQRGEVIIIDDFEFKVLNADSRRIKLLECLDKR | soluble
15 | MKTTPIPLRRDIILDGKWCAAMLKELESLYEGDIVINGQPEHPEDYEWFYTADGDEIGIAKHRLTEQERRLLALFFTPAERRREPESEEERAWKRWMATGDPAALARLAAPYCRFIHFTASRPIANKEEFADAVRGLFSSPVAIVWEQDRRGLIVEAKQKRTTEPPSLADMAEALAADFYTALHLLIGPIRSVDERLYESFLLEKECFSAARRFWPKRTVYEWEDVIPLPLFEEGAVSEKARRTLSFLDGFDEEEVRAMETFLQCNLNVSMAAKKLYMHRNSLQYRIDKWAEQTGVDIKRFKGAAAVYLAILHRRRS | not soluble
16 | MGSDKIHHHHHHMKEIRIILMGTGNVGLNVLRIIDASNRRRSAFSIKVVGVSDSRSYASGRNLDISSIISNKEKTGRISDRAFSGPEDLMGEAADLLVDCTPASRDGVREYSLYRMAFESGMNVVTANKSGLANKWHDIMDSANQNSKYIRYEATVAGGVPLFSVLDYSILPSKVKRFRGIVSSTINYVIRNMANGRSLRDVVDDAIKKGIAESNPQDDLNGLDAARKSVILVNHIFGTEYTLNDVEYSGVDERSYNANDRLVTEVYVDDRRPVAVSRIISLNKDDFLMSIGMDGLGYQIETDSNGTVNVSDIYDGPYETAGAVVNDILLLSKVQK | not soluble
17 | MGSDKIHHHHHHMKIRVDIIGLKGGVGKTTIALNTALYLSKRYKVLYIDKDLLSMGSLILGFNGLGFNKAIVEGLGNEQYEYKVNNNLTLFKLYSDPVNERELQHKVKGMGEKAERAYVDVVSKGYDVIIVDYGRIFRTNDPLVYDEYEMFKKNFPDYTIAAAGITDAIRNDVTDVVKYFLDTINRIKAKPLAFVINMVPQIGDIQKEINQIVREISEVVKCDILTIPFNEKLVQYANMGEVEEMQKVGKLIERILSNG | not soluble
18 | MINLKGITKSFQNGAESIQILHGIDVTLNQGEFTSIMGPSGSGKSTLMNIIGCLDKPTTGTYELAGQNISNMSKTELAHVRNKEIGFVFQNFMLLPRLSALQNVELPLIYAGVDKKERRERSLAALTKVGLADRATHLPNELSGGQKQRVAVARAIVNNPKFILADEPTGALDTKTSTQIMDLFYELNKQGSTIIMITHDREIGEAAARQIVIRDGNIVQDWRG | not soluble
19 | MSLNKGSERTFNDLVEFIGEEMDFESGFYNDSYLDRRITARMRRTDTEDYQTYQRLLERDNGEREELLDSLSINVTSFFRNPEAWERLRPVLRELTENNRRVRLWSAPSADGREPYSAAMLALDDPEIDARRVEITATDINADILEEARKGTYATSQTTDIADELEPLDDYTKYIEQDGDTFQVRDQVKEMVTFEQHDLIRGDPKRDFDLVFCRNLLIYIDSEFKVPIFETIRGSLREGGYLMIGMTETLPAECRDSFEAVDKRHRIYRREGHHHHHH | not soluble
20 | MYKVLRKERLTPKAVLLEVQDERAKLVKPGQYALVQANEESEPIPLSFLDVKESSYTFLVEVGGRATLEIAELVEEKIQFIEAPCGSPFPVKNYGKVLLISKNWGVAPLINIGRALKEESNEIYFVHVAEDEERVFLTKEASEISEEFLLFTEDGSLGEEGNSEWALGYFIENFGKPDLIVSAGSNLDSQMINRFAEERNIPHIAMVNAHILDANGLCLACRVLVEGQEKLACIDGPWFDASKVDWDYAIQKEAFYKEEEEKALKTFLRELQRLKARGR | not soluble
21 | MKLMKKNTDDGAKIYTPLTLKLYDWWVLGVSNRLAWGCPTKEHLLPHFLEHLGNNHLDIGVGTGFYLTHVPESSLISLMDLNEASLNAASTRAGESKIKHKISHDVFDPYPAALHGQFDSISMFYLLHCLPGNISTKSCVIRNAAQALTDDGTLYGATILGDGVVHNSFGQKLMRIYNQKGIFSNTKDSEEGLTHILSEHFENVKTKVKGTVVMFSASGKK | not soluble
